According to the supplement of paper PMC9170038:

Tested on: MS2 coat protein
Assay: apparent KD of MS2 coat protein; designed switch direction (-1 OFF switch, 1 ON switch): -1; higher = weaker reporter binding
Summary of the method: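 Transcription of designed RNA switches on Illumina chips was done by stalled E. coli RNA polymerase. SNAP-549-labelled MS2 coat protein was then titrated in doubling steps from 0.7 or 1.5 nM to 3 µM, with steps of 0.8–1.5 h at the lowest and 10–20 min at the highest concentration. The per-design median over clusters of curve-fitted normalised fluorescence is reported as apparent KD.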

[1] = input ligand: microRNA oligo, concentration not stated
[2] = Eterna round: R95, input ligand: FMN 200 uM
[3] = Eterna round: R95, input ligand: microRNA oligo, concentration not stated
[4] = Eterna round: R95, input ligand: none

Sequence | apparent KD of MS2 coat protein (input ligand: FMN 200 uM) [nM] | apparent KD of MS2 coat protein (input ligand: none) [nM] | apparent KD of MS2 coat protein [1] [nM] | apparent KD of MS2 coat protein [2] [nM] | apparent KD of MS2 coat protein [3] [nM] | apparent KD of MS2 coat protein [4] [nM]
AAAUUCAGAGGAUAUGCGCAUAGAUAAGACUUUUUUUUUUAACAUGAGGAUCACCCAUGUAGAAGGCUGUAAAU [Ex2 #52] (Eterna round: R97, puzzle: Exclusion 2) | 24 | 25.5 | – | – | – | –
AACACUGUAGGAUAUCAUGAACUGGACUUGAGGAUCACCCAAGUGUAUCGUGGAGUGCCGUGAGAAGGACGGAUUA [Erleen] (Eterna round: R97, puzzle: Exclusion 5) | 28.1 | 27.2 | – | – | – | –
AACAGUCUGGAGGAUAUGCUGGAUAAAUAUCUGGCAGAAGGCUGGACAUGAGGAUCACCCAUGUAAAUACUACC [Omei Ex6 A2b] (Eterna round: R97, puzzle: Exclusion 6) | 54.5 | 24.9 | – | – | – | –
AACAUGAGGAUCACCCAUGUGGGUCCUCUGUGGCAGCGAGACGAGGAUAUCAAUGGAGGGCCAGGUGAGAAGGUGUACGAUCAU [Eternabot solution 28] (Eterna round: R96, puzzle: Exclusion NG 3) | 183 | 386 | 192 | – | – | –
AACAUGUGAGGAUAUUAUCACAAAGGCGUAGAAAUACGCGAUAAGAAGGCACAUGAGGAUCACCCAUGUUCCGA [EX4 A.24] (Eterna round: R97, puzzle: Exclusion 4) | 66.8 | 17.5 | – | – | – | –
AACAUUCCAGAAAGGAAUGACAUGAGGAUCACCCAUGUAGGGAUCUAUGCUAAGUUGCUCGUCGCCGCUCCACAAAG [Eternabot (Original) Solution 5] (Eterna round: R97, puzzle: Sensor, turn-off variant 1) | 431 | 362 | – | – | – | –
AACCUACAUGAGGAUCACCCAUGUGAGGAUAUAUUGUUAUUUAUAUUAUUUUUUAGAGGUAGAAGGCGCGUGAU [JR_Exc1_Sub020] (Eterna round: R97, puzzle: Exclusion 1) | 15.9 | 17.3 | – | – | – | –
AACCUGAGGCAAAGCUUUAGGCUUACAUGAGGAUCACCCAUGUAGGAUAUGGUAGGCAAAGCUUACCAGAAGGACAUGGAAAUU [Mat - Exclusion NG 3 - Mod of JL - D24] (Eterna round: R96, puzzle: Exclusion NG 3) | 611 | 130 | 127 | – | – | –
AACCUGAGGCAAAGCUUUAGGUGUACAUGAGGAUCACCCAUGUAGGAUAUGGUAGGCAAAGCUUACCAGAAGGACAUAAUGAUG [Mat - Exclusion NG 3 - Mod of JL - D47] (Eterna round: R96, puzzle: Exclusion NG 3) | 100 | 83.7 | 45.1 | – | – | –
AACUUCUGAGGAUAUACAUAGAUUUACAUGAGGAUCACCCAUGUUCCUCUAUGUAUAAAUGUAGAAGGCAGAAGAU [Mat - Exclusion 5 - JL Mod - D62] (Eterna round: R97, puzzle: Exclusion 5) | 129 | 18.4 | – | – | – | –
AACUUCUGAGGAUAUACUUAGAUUUACAUGAGGAUCACCCAUGUUCCUCUUUGUAUAAAUGUAGAAGGCAGAAGAA [JL-ex5-4.38 Malcolm mod] (Eterna round: R97, puzzle: Exclusion 5) | 381 | 45.3 | – | – | – | –
AAGAAACAUGAGGAUCACCCAUGUGAGGAUAUAGAAAGAAAGAAAAGAAAAGAAAGAACUAGAAGGCACAAAGA [JR_Exclu1_Sub030] (puzzle: Exclusion 1) | – | – | – | 26.2 | 26.4 | 30.8
AAGAAACAUGAGGAUCACCCAUGUGAGGAUAUGAAAAAGAAAAUAAAAUAAAUAAGAAUCAGAAGGCACAAAGG [Mat - Mod of Hog D5] (puzzle: Exclusion 1) | – | – | – | 40.6 | 45.5 | 40.2
AAGAAACAUGAGGAUCACCCAUGUGAGGAUAUGAAGAAGAAAAGAAAAGAAAGAAGAAUCAGAAGGCACAAAGG [salish99-ex1_r3_046] (puzzle: Exclusion 1) | – | – | – | 67.1 | 25.8 | 48.4
AAGAAACAUGAGGAUCACCCAUGUGAGGAUAUGACAAAGAAAAGAAAAGAAAGAAGAGUCAGAAGGCACAAAGG [salish99-ex1_r3_038] (puzzle: Exclusion 1) | – | – | – | 137 | 53.1 | 57.7
AAGAAACAUGAGGAUCACCCAUGUGAGGAUAUGAUAAAGAAAAGAAAAGAAAGAAGACUCAGAAGGCACAAAGG [salish99-ex1_r3_041] (puzzle: Exclusion 1) | – | – | – | 31 | 26.7 | 28.9
AAGAAACAUGAGGAUCACCCAUGUGAGGAUAUGGCCCGCCCGGCGUGAGCUGGUUUUGUCAGAAGGCACAAAGG [salish99_ex1_r4_017] (Eterna round: R97, puzzle: Exclusion 1) | 104 | 41.9 | – | – | – | –
AAGAAACAUGAGGAUCACCCAUGUGAGGAUAUGGCCCGCCCGGCGUGAGCUGGUUUUGUCAGAAGGCGCAAAGG [salish99_ex1_r4_018] (Eterna round: R97, puzzle: Exclusion 1) | 53.9 | 50.8 | – | – | – | –
AAGAAGGCAGGAUAUACAAAAUAAAAGAAAAGAAAGAAAGAACAUGAGGAUCACCCAUGUAGAAGGGUCAAGAA [Sankhenre Sewadjtu] (Eterna round: R96, puzzle: Exclusion 2) | 52.2 | 60.7 | 46.3 | – | – | –
AAGAAGGCCGUAGGAUAUACAGCAAGAACGCGAGUAGAAGGACGAUACAUGAGGAUCACCCAUGUACGUGGGUAGUGCUCGUGC [Soatceri] (Eterna round: R96, puzzle: Exclusion NG 1) | 26 | 21.8 | 10.9 | – | – | –
AAGACACAUGAGGAUCACCCAUGUGAGGAUAUUCGAUGCUGAGCGUAAGCUUAGUAUCGGAGAAGGCACAUAGG [Salishxclusion 8 - Jieux - Exclusion 1] (Eterna round: R97, puzzle: Exclusion 1) | 203 | 251 | – | – | – | –
AAGACACAUGAGGAUCACCCAUGUGAGGAUAUUUGAUGCUGAGCGUAAGCUUAGUAUCAGAGAAGGUACAUAGG [Salishxclusion 10 - Jieux - Exclusion 1] (Eterna round: R97, puzzle: Exclusion 1) | 105 | 58.9 | – | – | – | –
AAGACCAGAGGAUAUCAGACGCGGCACAUGAGGAUCACCCAUGUAUUCCCGUCUGCCGACUGAGAAGGUUGGAAAG [Xeusbi] (puzzle: Exclusion 5) | – | – | – | – | 9.41 | –
